Source: the supplement of paper PMC9170038

What was measured:
[1] = tested on: K4 kissing-loop RNA reporter; assay: apparent KD of K4 kissing-loop reporter; higher = weaker reporter binding; conditions: Eterna round: R107;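 note: bound reporter read as fluorescence of individual clusters on recovered sequencing chips by microscopy, with normalized cluster intensities fitted with a binding model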
Experimental: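 RNA-MaP round R107: designed RNA switches with theophylline, tryptophan, arginine or FMN aptamers are transcribed on-chip within common flanks. They are titrated with a labelled K4 kissing-loop RNA reporter in RNA-MaP buffer (100 mM Tris pH 7.5, 80 mM KCl, 4 mM MgCl2), without ligand or with the indicated ligand. Median apparent KD per design.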

MS2 coat protein = assay: apparent KD of MS2 coat protein; designed switch direction (-1 OFF switch, 1 ON switch): -1; higher = weaker reporter binding
In short: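 Stalled E. coli RNA polymerase transcribed designed RNA switches on Illumina chips, which were then titrated with SNAP-549-labelled MS2 coat protein, doubling from 0.7 or 1.5 nM to 3 µM. Steps lasted from 0.8–1.5 h at the lowest concentration to 10–20 min at the highest. The apparent KD is each design's median over clusters of curve-fitted normalised fluorescence.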

[2] = input ligand: theophylline 20 uM
[3] = input ligand: tryptophan 2.4 mM
[4] = input ligand: microRNA oligo, concentration not stated

Row | Sequence | apparent KD of K4 kissing-loop reporter ([1]; input ligand: FMN 200 uM) [nM] | apparent KD of K4 kissing-loop reporter ([1]; input ligand: arginine 13.2 mM) [nM] | apparent KD of K4 kissing-loop reporter ([1]; input ligand: none) [nM] | apparent KD of K4 kissing-loop reporter [1, 2] [nM] | apparent KD of K4 kissing-loop reporter [1, 3] [nM] | apparent KD of MS2 coat protein (MS2 coat protein; input ligand: FMN 200 uM) [nM] | apparent KD of MS2 coat protein (MS2 coat protein; [4]) [nM] | apparent KD of MS2 coat protein (MS2 coat protein; input ligand: none) [nM]
1 | AAAAUAAAAGGUCACCCAGUGAUGUUGGAAGGAGCGUGCGAAAGCACAGGUAGGUCGCCAACCUAAAAGUGACCAGGGAAACCCA [#SwitchBubble 7 #K4Early] | 594 | 253 | 171 | 183 | 276 |  |  | 
2 | AAAAUAAACCAGUGAUGUUGGUGUCUGGAUACCAGCGACGAAAGUCGCCCUUGGCAGCUAUGGACGUACAAAAUAAGUACGUCCU [MatMod 7 - Jieux - Same State - Theophylline A] | 704 | 485 | 622 | 637 | 510 |  |  | 
3 | AAAAUAACCCAGUGAUGUUGGUAACCAGAUACCAGCGACGAAAGUCGCCCUUGGCAGCUGUGGACGUACAAAAUAAGUACGUCCU | 686 | 765 | 859 | 583 | 649 |  |  | 
4 | AAAAUAAUCCAGUGAUGUUGGUAUCCAGAUACCAGCGACGAAAGUCGCCCUUGGCAGCUGUGGACGUACAAAAUAAGUACGUCCU [#OpenEnded 9 #StaticStem #K4Early] | 502 | 386 | 535 | 842 | 630 |  |  | 
5 | AAAAUUAUCUGAAGGAGCGUGAAAUAAUAUUAAACAUAACAACCCAGUGAUGUUGGGUUAUCACAGGUAGGUCGCAGAUGUAGAA [Same State Arginie B GF 25] | 106 | 113 | 108 | 115 | 90.8 |  |  | 
6 | AAACAUCACUGGGAGUGAUGUUCUCAGUGACGAGGACCGGUACGGCCGCCACUCGCGAGAGAACUAGUCUAGACUUGACUGCAUU [Excl Tryptophan A V14] | 386 | 366 | 356 | 425 | 428 |  |  | 
7 | AAACAUCACUGGGAGUGAUGUUCUCAGUGACGAGGACCGGUACGGCCGCCACUCGCGAGAGAUAUAAUUAAGUAAUGACUUCAUU [Excl Tryptophan A V7] | 241 | 205 | 231 | 246 | 287 |  |  | 
8 | AAACAUCACUGGGAGUGAUGUUCUCAGUGACGAGGACCGGUACGGCCGCCACUCGCGAGAGAUAUAGUCUAGUAUUGACUGCAUU [Excl Tryptophan A V11] | 242 | 244 | 231 | 339 | 348 |  |  | 
9 | AAACAUUGGUCGGAUACCAGCUUGAUCGGAAACGAUCUGCUGGAGUGAUGUUCCAAGUAAAGCCCUUGGCAGCCGACCGAUGAAA [MAT - Same State Theophlline B - Mod of Eli - D17] | 133 | 62.8 | 55.6 | 143 | 74.5 |  |  | 
10 | UUUUUAAAUGAAGGAUAUACUUAACAUGAGGAUCACCCAUGUGGUGUUGUGAGUGAGUGAGUUUAGUAGAAGGUCAAGUAUUUU [JMF's solution 44] (Eterna round: R96, puzzle: Exclusion NG 2) |  |  |  |  |  | 814 | 339 | 392
11 | UUUUUACAUGAAGGAUAUACUUAACAUGAGGAUCACCCAUGUGGUGUUGUGAGUGAGUGAGUUUAGUAGAAGGUCAAUUAUUUU [JMF's solution 22] (Eterna round: R96, puzzle: Exclusion NG 2) |  |  |  |  |  | 556 | 241 | 314
